Results from article PMC11743776, “Isoxazole-based molecules restore NK cell immune surveillance in hepatocarcinogenesis by targeting TM4SF5 and SLAMF7 linkage” (Signal Transduction and Targeted Therapy, 2025).

T1: TM4SF5 (Homo sapiens, UniProt O14894)
T1 construct: Strep-TM4SF5 WT (pulled down from HEK293FT) or HA-TM4SF5 (immunoprecipitated from Huh7KO)
T1 sequence (O14894 1-197): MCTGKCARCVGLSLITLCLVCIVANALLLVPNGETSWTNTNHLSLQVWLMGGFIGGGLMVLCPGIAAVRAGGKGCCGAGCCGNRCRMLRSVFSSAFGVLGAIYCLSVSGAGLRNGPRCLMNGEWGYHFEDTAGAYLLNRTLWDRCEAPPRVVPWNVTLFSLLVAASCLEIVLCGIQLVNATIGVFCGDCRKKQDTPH


biological target: T1, TM4SF5; experiment: […]-radioligand binding to pulled-down/immunoprecipitated TM4SF5, blocked by cold ST-5-002; EC50 by titration (about […] or […] for the differently tagged proteins); settings: not given

EC50 [nM] | Molecule
~850 | Cc1ccc(C(=O)Nc2ccc(-c3cc(-c4ccc(O)cc4)no3)cc2)cc1 [ST-5-002, N-(4-(3-(4-hydroxyphenyl)isoxazol-5-yl)phenyl)-4-methylbenzamide]

biological target: not listed separately; experiment: confocal immunofluorescence colocalisation; settings: glycan lost; control: FLAG-SLAMF7 WT

Molecule | localisation_or_trafficking
SLAMF7: NQ#6 (protein) parent chain: MAGSPTCLTLIYILWQLTGSAASGPVKELVGSVGGAVTFPLKSKVKQVDSIVWTFNTTPLVTIQPEGGTIIVTQNRNRERVDFPDGGYSLKLSKLKKNDSGIYYVGIYSSSLQQPSTQEYVLHVYEHLSKPKVTMGLQSNKNGTCVTNLTCCMEHGEEDVIYTWKALGQAANESHNGSILPISWRWGESDMTFICVARNPVSRNFSSPILARKLCEGAADDPDSSMVLLCLLLVPLLLSLFVLGLFLWFLKRERQEEYIEEKKRVDICRETPNICPHSGENTEYDTIPHTNRTILKEDPANTVYSTVEIPKKMENPHSLLTMPDTPRLFAYENVI | abolishes
SLAMF7: NQ#123 (protein) parent chain: MAGSPTCLTLIYILWQLTGSAASGPVKELVGSVGGAVTFPLKSKVKQVDSIVWTFNTTPLVTIQPEGGTIIVTQNRNRERVDFPDGGYSLKLSKLKKNDSGIYYVGIYSSSLQQPSTQEYVLHVYEHLSKPKVTMGLQSNKNGTCVTNLTCCMEHGEEDVIYTWKALGQAANESHNGSILPISWRWGESDMTFICVARNPVSRNFSSPILARKLCEGAADDPDSSMVLLCLLLVPLLLSLFVLGLFLWFLKRERQEEYIEEKKRVDICRETPNICPHSGENTEYDTIPHTNRTILKEDPANTVYSTVEIPKKMENPHSLLTMPDTPRLFAYENVI | no change
SLAMF7: NQ#456 (protein) parent chain: MAGSPTCLTLIYILWQLTGSAASGPVKELVGSVGGAVTFPLKSKVKQVDSIVWTFNTTPLVTIQPEGGTIIVTQNRNRERVDFPDGGYSLKLSKLKKNDSGIYYVGIYSSSLQQPSTQEYVLHVYEHLSKPKVTMGLQSNKNGTCVTNLTCCMEHGEEDVIYTWKALGQAANESHNGSILPISWRWGESDMTFICVARNPVSRNFSSPILARKLCEGAADDPDSSMVLLCLLLVPLLLSLFVLGLFLWFLKRERQEEYIEEKKRVDICRETPNICPHSGENTEYDTIPHTNRTILKEDPANTVYSTVEIPKKMENPHSLLTMPDTPRLFAYENVI | abolishes

biological target: not listed separately; experiment: immunoblot of SLAMF7 level with TM4SF5 expression; settings: glycan lost; control: WT SLAMF7, TM4SF5 co-expressed

Molecule | expression_or_secretion
SLAMF7: NQ#1456 (protein) parent chain: MAGSPTCLTLIYILWQLTGSAASGPVKELVGSVGGAVTFPLKSKVKQVDSIVWTFNTTPLVTIQPEGGTIIVTQNRNRERVDFPDGGYSLKLSKLKKNDSGIYYVGIYSSSLQQPSTQEYVLHVYEHLSKPKVTMGLQSNKNGTCVTNLTCCMEHGEEDVIYTWKALGQAANESHNGSILPISWRWGESDMTFICVARNPVSRNFSSPILARKLCEGAADDPDSSMVLLCLLLVPLLLSLFVLGLFLWFLKRERQEEYIEEKKRVDICRETPNICPHSGENTEYDTIPHTNRTILKEDPANTVYSTVEIPKKMENPHSLLTMPDTPRLFAYENVI | increases
SLAMF7: NQ#2 (protein) parent chain: MAGSPTCLTLIYILWQLTGSAASGPVKELVGSVGGAVTFPLKSKVKQVDSIVWTFNTTPLVTIQPEGGTIIVTQNRNRERVDFPDGGYSLKLSKLKKNDSGIYYVGIYSSSLQQPSTQEYVLHVYEHLSKPKVTMGLQSNKNGTCVTNLTCCMEHGEEDVIYTWKALGQAANESHNGSILPISWRWGESDMTFICVARNPVSRNFSSPILARKLCEGAADDPDSSMVLLCLLLVPLLLSLFVLGLFLWFLKRERQEEYIEEKKRVDICRETPNICPHSGENTEYDTIPHTNRTILKEDPANTVYSTVEIPKKMENPHSLLTMPDTPRLFAYENVI | no change
SLAMF7: NQ#3 (protein) parent chain: MAGSPTCLTLIYILWQLTGSAASGPVKELVGSVGGAVTFPLKSKVKQVDSIVWTFNTTPLVTIQPEGGTIIVTQNRNRERVDFPDGGYSLKLSKLKKNDSGIYYVGIYSSSLQQPSTQEYVLHVYEHLSKPKVTMGLQSNKNGTCVTNLTCCMEHGEEDVIYTWKALGQAANESHNGSILPISWRWGESDMTFICVARNPVSRNFSSPILARKLCEGAADDPDSSMVLLCLLLVPLLLSLFVLGLFLWFLKRERQEEYIEEKKRVDICRETPNICPHSGENTEYDTIPHTNRTILKEDPANTVYSTVEIPKKMENPHSLLTMPDTPRLFAYENVI | no change
SLAMF7: NQ#123 (protein) parent chain: MAGSPTCLTLIYILWQLTGSAASGPVKELVGSVGGAVTFPLKSKVKQVDSIVWTFNTTPLVTIQPEGGTIIVTQNRNRERVDFPDGGYSLKLSKLKKNDSGIYYVGIYSSSLQQPSTQEYVLHVYEHLSKPKVTMGLQSNKNGTCVTNLTCCMEHGEEDVIYTWKALGQAANESHNGSILPISWRWGESDMTFICVARNPVSRNFSSPILARKLCEGAADDPDSSMVLLCLLLVPLLLSLFVLGLFLWFLKRERQEEYIEEKKRVDICRETPNICPHSGENTEYDTIPHTNRTILKEDPANTVYSTVEIPKKMENPHSLLTMPDTPRLFAYENVI | no change
SLAMF7: NQ#456 (protein) parent chain: MAGSPTCLTLIYILWQLTGSAASGPVKELVGSVGGAVTFPLKSKVKQVDSIVWTFNTTPLVTIQPEGGTIIVTQNRNRERVDFPDGGYSLKLSKLKKNDSGIYYVGIYSSSLQQPSTQEYVLHVYEHLSKPKVTMGLQSNKNGTCVTNLTCCMEHGEEDVIYTWKALGQAANESHNGSILPISWRWGESDMTFICVARNPVSRNFSSPILARKLCEGAADDPDSSMVLLCLLLVPLLLSLFVLGLFLWFLKRERQEEYIEEKKRVDICRETPNICPHSGENTEYDTIPHTNRTILKEDPANTVYSTVEIPKKMENPHSLLTMPDTPRLFAYENVI | increases
SLAMF7: NQ#1 (protein) parent chain: MAGSPTCLTLIYILWQLTGSAASGPVKELVGSVGGAVTFPLKSKVKQVDSIVWTFNTTPLVTIQPEGGTIIVTQNRNRERVDFPDGGYSLKLSKLKKNDSGIYYVGIYSSSLQQPSTQEYVLHVYEHLSKPKVTMGLQSNKNGTCVTNLTCCMEHGEEDVIYTWKALGQAANESHNGSILPISWRWGESDMTFICVARNPVSRNFSSPILARKLCEGAADDPDSSMVLLCLLLVPLLLSLFVLGLFLWFLKRERQEEYIEEKKRVDICRETPNICPHSGENTEYDTIPHTNRTILKEDPANTVYSTVEIPKKMENPHSLLTMPDTPRLFAYENVI | no change
SLAMF7: NQ#23456 (protein) parent chain: MAGSPTCLTLIYILWQLTGSAASGPVKELVGSVGGAVTFPLKSKVKQVDSIVWTFNTTPLVTIQPEGGTIIVTQNRNRERVDFPDGGYSLKLSKLKKNDSGIYYVGIYSSSLQQPSTQEYVLHVYEHLSKPKVTMGLQSNKNGTCVTNLTCCMEHGEEDVIYTWKALGQAANESHNGSILPISWRWGESDMTFICVARNPVSRNFSSPILARKLCEGAADDPDSSMVLLCLLLVPLLLSLFVLGLFLWFLKRERQEEYIEEKKRVDICRETPNICPHSGENTEYDTIPHTNRTILKEDPANTVYSTVEIPKKMENPHSLLTMPDTPRLFAYENVI | increases
SLAMF7: NQ#2456 (protein) parent chain: MAGSPTCLTLIYILWQLTGSAASGPVKELVGSVGGAVTFPLKSKVKQVDSIVWTFNTTPLVTIQPEGGTIIVTQNRNRERVDFPDGGYSLKLSKLKKNDSGIYYVGIYSSSLQQPSTQEYVLHVYEHLSKPKVTMGLQSNKNGTCVTNLTCCMEHGEEDVIYTWKALGQAANESHNGSILPISWRWGESDMTFICVARNPVSRNFSSPILARKLCEGAADDPDSSMVLLCLLLVPLLLSLFVLGLFLWFLKRERQEEYIEEKKRVDICRETPNICPHSGENTEYDTIPHTNRTILKEDPANTVYSTVEIPKKMENPHSLLTMPDTPRLFAYENVI | increases

biological target: not listed separately; experiment: immunoblot of SLAMF7 in co-transfected SNU761 cells; settings: glycan lost; control: Strep-TM4SF5 WT

Molecule | other: downregulation of SLAMF7 level
TM4SF5: Gly− (protein) parent chain: MCTGKCARCVGLSLITLCLVCIVANALLLVPNGETSWTNTNHLSLQVWLMGGFIGGGLMVLCPGIAAVRAGGKGCCGAGCCGNRCRMLRSVFSSAFGVLGAIYCLSVSGAGLRNGPRCLMNGEWGYHFEDTAGAYLLNRTLWDRCEAPPRVVPWNVTLFSLLVAASCLEIVLCGIQLVNATIGVFCGDCRKKQDTPH | abolishes
